Measurements as given in patent US20090203886A1 (OSAKA UNIVERSITY, published 2009).

T1: human CD20 antigen (human, UniProt P11836 1-297)
T1 construct: whole, on cells; also called CD20 on Raji cells; CD20/CHO cells
T1 sequence (looked up): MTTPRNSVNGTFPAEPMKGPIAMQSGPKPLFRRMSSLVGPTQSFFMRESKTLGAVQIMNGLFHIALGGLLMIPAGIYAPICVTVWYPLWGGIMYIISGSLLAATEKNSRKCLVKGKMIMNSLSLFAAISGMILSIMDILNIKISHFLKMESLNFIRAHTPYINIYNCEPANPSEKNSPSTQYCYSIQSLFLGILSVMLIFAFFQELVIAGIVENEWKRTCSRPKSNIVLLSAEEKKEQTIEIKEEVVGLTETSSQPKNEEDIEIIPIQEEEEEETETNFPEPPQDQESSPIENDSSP


Assays:
human CD20 antigen [1] = molecular target: T1, human CD20 antigen; test: Scatchard analysis on Raji cells, FITC secondary antibody fluorescence (Example 2)
Experimental: The mixture was shaken for one hour at room temperature while shielding against light and primary antibodies binding to cells were detected. After the reaction, the mixture was centrifuged at 3,000 rpm for three minutes and the cells were recovered. The cells were suspended in 200 μl of PBS to remove unreacted FITC-labeled anti murine IgG (H&L) antibody remaining on the cell surface and then centrifuged at 3,000 rpm for three minutes to remove the supernatant. This operation was repeated twice.
After the detection step, the image was digitized using image analysis software Image Quant (Amersham Bioscience) and analyzed using Excel (Microsoft). Background values for the plate, the PBS solution and FITC-labeled secondary antibody displaying non-specific binding to cells were determined. Then a value for the reaction only between the cells and the FITC-labeled secondary antibodies was obtained. Average values for those four points were subtracted from the fluorescent intensity value for each sample in order to obtain the amount of fluorescence of cell-conjugated FITC-labeled secondary antibody. A standard curve was prepared by measuring the amount of fluorescence at various concentrations of control cell-conjugated FITC-labeled secondary antibodies. Thus the amount of cell-conjugated secondary antibody (number of moles or weight) was calculated. The amount of cell-conjugated primary antibody was calculated assuming that each primary antibody and the FITC-labeled secondary antibody react at a ratio of 1:2. Primary antibody in suspension was calculated by subtracting the cell-conjugated amount from the added amount. When calculating the antibody concentration as a molar concentration, the molecular weight of the monoclonal was taken to be 150,000.
Scatchard analysis was used to calculate the antigen number and dissociation constant (Kd value) refer to Scatchard, G.; Ann. N.Y. Acad.

human CD20 antigen [2] = molecular target: T1, human CD20 antigen; test: cell-based or functional assay
human CD20 antigen [3] = molecular target: T1, human CD20 antigen; test: cell-based or functional assay; remark: listed apart in the source

Binder	Kd (human CD20 antigen [1])	Cell growth inhibiting test on Raji cells, Absorption (492 nm) (human CD20 antigen [2])	Capacity to Induce Apoptosis (Raji cells) (human CD20 antigen [3])
1K1422 murine anti CD20 monoclonal antibody (antibody, V domains shown, also called m1422) VH: QVQLQQPGAELVKPGASVKMSCRASGYTFTNYNMHWIKQTPGQGLEWIGAIYPGSGDTSYNRKFKGKATLTADTSSSTAYMQFSSLTSADSAVYYCARFTYYYGGTYGAMDYWGQGTSVTVSL VL: QIVLTQSPPIMSASLGEEITLTCSASSRVSYMLWYQQKSGTSPKLLIYSTSNLASGVPSRFSGSGSGTFYSLTISSVEAEDAADYYCHQWTSNPCTFGGGTKLEIK	3.39 nM	1.77 absorbance 492 nm	130
1K0924 murine anti CD20 monoclonal antibody (antibody, mouse IgG2b, V domains shown, also called m0924) VH: QVQLQQPGAELVKPGASVKMSCKASGYTFTSYNIHWVKQTPGQGLEWIGAIYPGNGDTSYNQKFKGKATLTSDKSSSTAYMQLSSLTSEDSAVYYCARMSTMITGFDYWGQGTTLTVSS VL: QIVLSQSPAILSASPGEKVTMTCRASSSVSYMHWYQQRPGSSPKPWIYATSNLASGVPARFSGSGSGTSYYFTISRVEAEDAATYYCQQWNSNPPTHGGGTKLEIK	1.35 nM	–	60
1K1712 murine anti CD20 monoclonal antibody (antibody, V domains shown, also called m1712) VH: QVQLQQPGAELVKPGASVKMSCKASGFTFTSYNLHWVKQTPGQGLEWIGAIYPGSGDTSYNQQFKGKATLTADKSSNTAYMQLNSLTSEDSAVYCCARSAMISTGNWYFDYWGQGTTLTVSS VL: QIVLSQSPAILSASPGEKVTMTCRASSSVSYMDWYQQKPGSSPKPWIYATSNLASGVPARFSGSGSGTSYSLTISRVEAEDTATYYCQQWTFNPPTFGSGTKLEIK	0.84 nM	2.33 absorbance 492 nm	50

Stronger by Kd (human CD20 antigen [1]), values ahead:

Kd (human CD20 antigen [1])	Cell growth inhibiting test on Raji cells, Absorption (492 nm) (human CD20 antigen [2])	Capacity to Induce Apoptosis (Raji cells) (human CD20 antigen [3])	Binder
0.26 nM	–	30	1K1228 murine anti CD20 monoclonal antibody (antibody, mouse IgG1, V domains shown, also called m1228) VH: QVQLQQPGAELVKPGASVKVSCKASGFTFTSYNLHWVKQTPGQGLVWIGAIYPGNGDTSYNQKFRGKATLTADISSSTAYMQLSSLTSEDSAVYYCARYYYGYDAMDYWGQGTSVTVSS VL: EIILTQSPTTMAASPGEKITITCSASSSISSYYLRWYQQKPGFSPKVLIYRTSNLASGVPARFSGSGSGTSYSLTIGTMEAEDVATYYCQQGNTVPLTFGSGTKLEIK
0.4 nM	2.6 absorbance 492 nm	30	1K1782 murine anti CD20 monoclonal antibody (antibody, V domains shown, also called m1782) VH: QVQLQQSGAELAKPGASVKMSCKASGYTFTSYWMHWVKQRPGQGLEWIGYITPSTGYTDYNKKFKDKATLTADRSSSTAYMHLSSLTSEDSAVYYCARSGPYFDVWGAGTTVTVSS VL: DILLTQSPAILFVSPGERVSLSCRASQNIGTSIHWYQQRTNGSPRLLIKYASESFSGIPSRFSGSGSGTDFTLSINSVESEDIADYYCQQSNSWPFTFGSGTKLEIK
0.78 nM	2.54 absorbance 492 nm	30	1K1402 murine anti CD20 monoclonal antibody (antibody, V domains shown, also called m1402) VH: QVQLQQPGAELVKPGASVKMSCKASGFTFTSYNMHWVKQTPGQGLEWIGGIYPGNGDTSYNQKFKGKATLTADKSSSTAYMQLSSLTSEDSAVYYCARFYYYGSMGAMDYWGQGTSVTVSS VL: QIVLSQSPAILSASPGEKVTMTCRASSSVSYMHWYQQKPGSSPKPWIYATSNLASGVPARFSGSGSGTSYSLTITRVEAEDAATYYCQQWTFNPPTFGAGTKLELK
0.54 nM	2.24 absorbance 492 nm	50	1K1736 murine anti CD20 monoclonal antibody (antibody, V domains shown) VH: QVQLQQPGAELVKPGASVKMSCKASGYTFTTYNLHWVKQTPGQGLEWIGGIYPGNGDTSYNQKFKVKATLTADKSSNTAYMQLSSLTSEDSAVYYCARWIYYGNYEGTLDYWGQGTSVTVSS VL: QIVLSQSPAILSSSPGEKVTMTCRASSSVSYMLWYQQKPGSSPEPWIYATSNLASGVPARFSGGGSGTSYSLTISRVEAEDAATYYCQQWTFNPPTFGGGTKLEIK
